The values that follow come from patent publication US8202973B2, “Method for the production of vitamin K-dependent proteins” (Novo Nordisk Health Care AG, priority 2000, dated 2012).

In one experiment the test system is CHO-K1 cells. The experiment is described as follows: FVII expression of CHO-K1 cells coexpressing FVII and a free FVII propeptide. It is filed as cell-based. The note with it: pools of CHO-K1 transfectants, pLN174 plus FVII propeptide in pcDNA3.1+; control with empty vector approximately 1 pg/cell/day. As for the experimental part: CHO K1 cells (ATCC CCI61) were transfected with equal amounts of pLN174 and pLN329 with the Fugene6 method (Boehriner-Mannheim). Transfectants were selected by the addition of methotrexate to 1 μM and G-418 to 0.45 mg/ml. The pool of transfectants were cloned by limiting dilution and FVII expression from the clones was measured.
CHO-K1 cells were transfected with pLN174 and 1) empty pcDNA3.1+ vector or 2) FVII propeptide in pcDNA3.1+, as described in Example 1. Pools of transfectants were analysed for FVII expression and cell numbers. The FVII yields pr. cell pr. 24 hours are outlined in FIG. 3.
“propeptide of FVII, AVFVTQEEAHGVLHRRRR (SEQ ID NO:7); expressed free from plasmid pLN329 (listed as Homo sapiens)”: the “FVII yields pr. cell pr. 24 hours” value was approximately 4 pg/cell/day.

For another experiment, the target named is T1, gamma-glutamyl carboxylase (Homo sapiens, UniProt P38435).
T1 sequence (P38435 1-758): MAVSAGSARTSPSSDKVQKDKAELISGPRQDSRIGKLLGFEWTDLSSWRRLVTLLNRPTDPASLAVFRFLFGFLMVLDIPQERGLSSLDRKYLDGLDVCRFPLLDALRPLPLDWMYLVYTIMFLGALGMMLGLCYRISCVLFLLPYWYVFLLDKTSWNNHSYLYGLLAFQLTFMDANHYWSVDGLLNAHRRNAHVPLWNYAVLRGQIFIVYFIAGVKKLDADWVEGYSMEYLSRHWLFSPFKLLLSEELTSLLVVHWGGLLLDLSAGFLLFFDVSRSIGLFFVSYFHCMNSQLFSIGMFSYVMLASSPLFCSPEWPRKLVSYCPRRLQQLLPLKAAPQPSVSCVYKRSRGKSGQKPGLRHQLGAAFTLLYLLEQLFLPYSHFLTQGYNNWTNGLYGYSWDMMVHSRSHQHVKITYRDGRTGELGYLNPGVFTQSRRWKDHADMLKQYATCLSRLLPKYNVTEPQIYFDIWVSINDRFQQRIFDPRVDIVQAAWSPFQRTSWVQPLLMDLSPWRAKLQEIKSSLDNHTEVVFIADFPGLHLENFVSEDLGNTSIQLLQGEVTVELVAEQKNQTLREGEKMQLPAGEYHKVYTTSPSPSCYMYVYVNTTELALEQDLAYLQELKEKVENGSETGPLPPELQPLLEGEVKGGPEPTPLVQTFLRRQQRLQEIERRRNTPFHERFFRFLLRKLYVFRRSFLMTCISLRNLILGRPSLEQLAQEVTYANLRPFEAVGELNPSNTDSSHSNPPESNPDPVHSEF
Experiment: not given
Particulars: free propeptide of vitamin K-dependent protein, positions -18 to -1; cited from earlier work.
With “consensus propeptide sequence AVFLSREQANQVLQRRRR (SEQ ID NO:1) (listed as Homo sapiens)”, the Ki (usually the dissociation constant of the complex between target and ligand, obtained from inhibition or displacement) was 0.43 nM.

As to “propeptide of FVII, AVFVTQEEAHGVLHRRRR (SEQ ID NO:7); expressed free from plasmid pLN329 (listed as Homo sapiens)”, the Ki is 11.1 nM.

Regarding “propeptide of Matrix Gla Protein, NPFINRRNANTFISPQQR (SEQ ID NO:3)”, the inhibition constant (Ki) was 5.8 nM.

Turning to “propeptide of Protein C, SVFSSSERAHQVLRIRKR (SEQ ID NO:9) (listed as Homo sapiens)”, the inhibition constant Ki is 230 nM.

For “propeptide of Protein S, ANFLSKQQASQVLVRKRR (SEQ ID NO:4) (listed as Homo sapiens)”, the inhibitory constant (Ki) was 12.2 nM.

Regarding “propeptide of Prothrombin, HVFLAPQQARSLLQRVRR (SEQ ID NO:6) (listed as Homo sapiens)”, the inhibition constant (Ki) was 277 nM.

For “propeptide of factor X, SLFIRREQANNILARVTR (SEQ ID NO:2) (listed as Homo sapiens)”, the Ki was 2.6 nM.

With “propeptide of proline-rich Gla protein 1, RVFLTGEKANSILKRYPR (SEQ ID NO:5) (listed as Homo sapiens) [PRGP1]”, the Ki was 12.8 nM.
